# Measurements reported in US20240294914A1, “COMPOSITIONS AND METHODS FOR TREATING HEPATITIS B VIRUS INFECTION” (priority 2021, published 2024).
# Strand notation (5' to 3'): a small letter for the sugar, then the base; units joined by * are phosphorothioate-linked, units joined directly phosphodiester-linked; [ ] holds rarer units or linkages, { } end groups; capitals alone tell only the bases. m = 2'-O-methyl; r = 2'-OH (RNA)
# Test system: HBV genome in HEK293T cells transduced with a lentiviral vector
# Assay: Base editing efficiency in Hek293-lentiHBV system (PCR amplicons sequenced on MiSeq)
# Type: cell-based, Hepatitis B virus
# Design: Editing Efficiency 2 (%): concentration or dose not given beside the values
# Conditions: for Average Editing Efficiency (%): average of 3, base editor Cas12b-ABE; for Average Editing Efficiency (%) / Editing Efficiency 1 (%) / Editing Efficiency 2 (%) / Editing Efficiency 3 (%): plasmid transfection, four days; for Editing Efficiency 1 (%): replicate 1, base editor Cas12b-ABE; for Editing Efficiency 2 (%): replicate 2, base editor Cas12b-ABE; for Editing Efficiency 3 (%): replicate 3, base editor Cas12b-ABE
Molecule,% Editing average (base editor Abe7.10) [%],% Editing average (base editor VRQR-ABE) [%],Average Editing Efficiency (%),Editing Efficiency 1 (%),Editing Efficiency 2 (%),Editing Efficiency 3 (%),% Editing average (base editor ABE8.8-m) [%]
"G-251: guide RNA SEQ ID NO: 5504 (nucleic acid, sugars from the 5' end m3 r93 m3 r1, linkages s3 o93 s3 (s phosphorothioate, o phosphodiester), T or U not given here) guide: CAGGUAUUGUUUACACAGAAGUUUUAGAGCUAGAAAUAGCAAGUUAAAAUAAGGCUAGUCCGUUAUCAACUUGAAAAAGUGGCACCGAGUCGGUGCUUUU",77,–,–,–,–,–,–
"G-845: guide RNA SEQ ID NO: 5508 (nucleic acid, sugars from the 5' end m3 r93 m3 r1, linkages s3 o93 s3 (s phosphorothioate, o phosphodiester), T or U not given here) guide: UUUGAAGUAUGCCUCAAGGUGUUUUAGAGCUAGAAAUAGCAAGUUAAAAUAAGGCUAGUCCGUUAUCAACUUGAAAAAGUGGCACCGAGUCGGUGCUUUU",70,–,–,–,–,–,–
"G-474: guide RNA SEQ ID NO: 5509 (nucleic acid, sugars from the 5' end m3 r93 m3 r1, linkages s3 o93 s3 (s phosphorothioate, o phosphodiester), T or U not given here) guide: GAUUAAAGGUCUUUGUACUAGUUUUAGAGCUAGAAAUAGCAAGUUAAAAUAAGGCUAGUCCGUUAUCAACUUGAAAAAGUGGCACCGAGUCGGUGCUUUU",–,74,–,–,–,–,–
cas12b-35: guide RNA SEQ ID NO: 388 (nucleic acid) guide: mG*mU*mU*rCrUrGrUrCrUrUrUrUrGrGrUrCrArGrGrArCrArArCrCrGrUrCrUrArGrCrUrArUrArArGrUrGrCrUrGrCrArGrGrGrUrGrUrGrArGrArArArCrUrCrCrUrArUrUrGrCrUrGrGrArCrGrArUrGrUrCrUrCrUrUrArCrGrArGrGrCrArUrUrArGrCrArCrCrCrCrArArGrGrUrCrUrUrArCrArUrArArGrArG,–,–,0.35,0.31,0.04,0.70,–
cas12b-100: guide RNA SEQ ID NO: 385 (nucleic acid) guide: mG*mU*mU*rCrUrGrUrCrUrUrUrUrGrGrUrCrArGrGrArCrArArCrCrGrUrCrUrArGrCrUrArUrArArGrUrGrCrUrGrCrArGrGrGrUrGrUrGrArGrArArArCrUrCrCrUrArUrUrGrCrUrGrGrArCrGrArUrGrUrCrUrCrUrUrArCrGrArGrGrCrArUrUrArGrCrArCrUrUrCrUrUrCrUrArGrGrGrGrArCrCrUrGrCrCrU,–,–,5.18,7.97,4.21,3.35,–
"G-553: guide RNA SEQ ID NO: 5506 (nucleic acid, sugars from the 5' end m3 r93 m3 r1, linkages s3 o93 s3 (s phosphorothioate, o phosphodiester), T or U not given here) guide: GGGCAACGGGGUAAAGGUUCGUUUUAGAGCUAGAAAUAGCAAGUUAAAAUAAGGCUAGUCCGUUAUCAACUUGAAAAAGUGGCACCGAGUCGGUGCUUUU",–,–,–,–,–,–,64
"G-159: guide RNA SEQ ID NO: 5488 (nucleic acid, sugars from the 5' end m3 r93 m3 r1, linkages s3 o93 s3 (s phosphorothioate, o phosphodiester), T or U not given here) guide: GCAAACACUUGGCACAGACCGUUUUAGAGCUAGAAAUAGCAAGUUAAAAUAAGGCUAGUCCGUUAUCAACUUGAAAAAGUGGCACCGAGUCGGUGCUUUU",51,–,–,–,–,–,–
cas12b-42: guide RNA SEQ ID NO: 384 (nucleic acid) guide: mG*mU*mU*rCrUrGrUrCrUrUrUrUrGrGrUrCrArGrGrArCrArArCrCrGrUrCrUrArGrCrUrArUrArArGrUrGrCrUrGrCrArGrGrGrUrGrUrGrArGrArArArCrUrCrCrUrArUrUrGrCrUrGrGrArCrGrArUrGrUrCrUrCrUrUrArCrGrArGrGrCrArUrUrArGrCrArCrGrGrArGrCrUrArCrUrGrUrGrGrArGrUrUrArCrU,–,–,28.99,29.48,23.94,33.54,–
"G-772: guide RNA SEQ ID NO: 5501 (nucleic acid, sugars from the 5' end m3 r93 m3 r1, linkages s3 o93 s3 (s phosphorothioate, o phosphodiester), T or U not given here) guide: UGGCGAUUGGUGGAGGCAGGGUUUUAGAGCUAGAAAUAGCAAGUUAAAAUAAGGCUAGUCCGUUAUCAACUUGAAAAAGUGGCACCGAGUCGGUGCUUUU",66,–,–,–,–,–,–
cas12b-147: guide RNA SEQ ID NO: 386 (nucleic acid) guide: mG*mU*mU*rCrUrGrUrCrUrUrUrUrGrGrUrCrArGrGrArCrArArCrCrGrUrCrUrArGrCrUrArUrArArGrUrGrCrUrGrCrArGrGrGrUrGrUrGrArGrArArArCrUrCrCrUrArUrUrGrCrUrGrGrArCrGrArUrGrUrCrUrCrUrUrArCrGrArGrGrCrArUrUrArGrCrArCrGrArGrGrArCrArArArCrGrGrGrCrArArCrArUrA,–,–,10.83,13.02,4.44,15.03,–
cas12b-30: guide RNA SEQ ID NO: 383 (nucleic acid) guide: mG*mU*mU*rCrUrGrUrCrUrUrUrUrGrGrUrCrArGrGrArCrArArCrCrGrUrCrUrArGrCrUrArUrArArGrUrGrCrUrGrCrArGrGrGrUrGrUrGrArGrArArArCrUrCrCrUrArUrUrGrCrUrGrGrArCrGrArUrGrUrCrUrCrUrUrArCrGrArGrGrCrArUrUrArGrCrArCrGrCrUrGrArCrGrCrArArCrCrCrCrCrArCrUrGrG,–,–,0.02,0.02,0.02,0.01,–
"G-200: guide RNA SEQ ID NO: 5498 (nucleic acid, sugars from the 5' end m3 r93 m3 r1, linkages s3 o93 s3 (s phosphorothioate, o phosphodiester), T or U not given here) guide: GUGAAAAAGUUGCAUGGUGCGUUUUAGAGCUAGAAAUAGCAAGUUAAAAUAAGGCUAGUCCGUUAUCAACUUGAAAAAGUGGCACCGAGUCGGUGCUUUU",–,–,–,–,–,–,59
cas12b-17: guide RNA SEQ ID NO: 382 (nucleic acid) guide: mG*mU*mU*rCrUrGrUrCrUrUrUrUrGrGrUrCrArGrGrArCrArArCrCrGrUrCrUrArGrCrUrArUrArArGrUrGrCrUrGrCrArGrGrGrUrGrUrGrArGrArArArCrUrCrCrUrArUrUrGrCrUrGrGrArCrGrArUrGrUrCrUrCrUrUrArCrGrArGrGrCrArUrUrArGrCrArCrGrGrGrGrCrCrArArGrUrCrUrGrUrArCrArGrCrA,–,–,35.07,26.42,34.50,44.29,–
cas12b-154: guide RNA SEQ ID NO: 387 (nucleic acid) guide: mG*mU*mU*rCrUrGrUrCrUrUrUrUrGrGrUrCrArGrGrArCrArArCrCrGrUrCrUrArGrCrUrArUrArArGrUrGrCrUrGrCrArGrGrGrUrGrUrGrArGrArArArCrUrCrCrUrArUrUrGrCrUrGrGrArCrGrArUrGrUrCrUrCrUrUrArCrGrArGrGrCrArUrUrArGrCrArCrUrUrGrUrCrArArCrArArGrArArArArArCrCrCrC,–,–,27.74,16.12,30.06,37.02,–
